Target: cnkr1_human CNKSR1 (UniProt Q969H4)
Sequence (Q969H4 whole entry): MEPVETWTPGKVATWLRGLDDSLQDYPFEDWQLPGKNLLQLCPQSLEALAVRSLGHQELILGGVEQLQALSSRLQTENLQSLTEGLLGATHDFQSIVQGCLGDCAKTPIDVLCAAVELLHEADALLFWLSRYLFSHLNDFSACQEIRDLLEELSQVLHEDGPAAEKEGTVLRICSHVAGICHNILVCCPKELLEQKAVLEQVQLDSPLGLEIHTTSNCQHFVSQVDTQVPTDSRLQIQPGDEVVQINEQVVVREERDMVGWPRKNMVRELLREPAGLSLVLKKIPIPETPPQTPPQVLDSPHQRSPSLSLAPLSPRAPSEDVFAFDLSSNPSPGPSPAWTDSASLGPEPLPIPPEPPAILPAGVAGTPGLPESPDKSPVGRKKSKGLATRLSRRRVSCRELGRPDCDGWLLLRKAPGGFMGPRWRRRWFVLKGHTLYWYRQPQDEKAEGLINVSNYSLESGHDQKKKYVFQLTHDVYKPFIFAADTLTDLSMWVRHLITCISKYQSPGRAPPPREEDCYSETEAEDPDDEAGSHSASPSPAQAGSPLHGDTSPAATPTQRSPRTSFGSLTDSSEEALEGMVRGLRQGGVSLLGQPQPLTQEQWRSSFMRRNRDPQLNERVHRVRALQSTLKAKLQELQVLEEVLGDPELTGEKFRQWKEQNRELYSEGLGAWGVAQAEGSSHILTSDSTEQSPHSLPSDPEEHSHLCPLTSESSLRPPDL

effect of a mutation on the interaction: increasing interaction
Substance: Rho-related GTP-binding protein RhoC (Homo sapiens), P08134 G14V

Reference: IntAct's records for PubMed 15670823
